Test [1] addresses IL-13 receptor (IL-13R) on human tumor cells (human). Briefly: cell-based or functional assay.
Test [2] has the same target. Briefly: displacement of [^125I]-IL-13 from HL-RCC cells.
The target is the same in test [3]. Briefly: radioligand (0.64 nM) binding to PM-RCC cells, 4 C, 2 h.
Test [4] has the same target. The test is described as follows: displacement of ^125I-IL-13 from WS-RCC and HL-RCC cells by excess unlabeled IL-13.
Test [5] shares this target. The test is described as follows: ^125I-IL-13 displacement by unlabeled IL-13 on HL-RCC cells, LIGAND/Scatchard analysis.
Test [6] shares this target. The test is described as follows: ^125I-IL-13 displacement by unlabeled IL-13 on MA-RCC cells, LIGAND/Scatchard analysis.
Test [7] shares this target. The test is described as follows: ^125I-IL-13 displacement by unlabeled IL-13 on PM-RCC cells, LIGAND/Scatchard analysis.
Test [8] has the same target. Briefly: ^125I-IL-13 displacement by unlabeled IL-13 on WS-RCC cells, LIGAND/Scatchard analysis.
Test [9] has the same target. Briefly: ^125I-hIL-13 displacement by unlabeled hIL-13 on A-172 glioma cells, LIGAND/Scatchard analysis.
Test [10] shares this target. The test is described as follows: ^125I-hIL-13 displacement by unlabeled hIL-13 on T-98G glioma cells, LIGAND/Scatchard analysis.
Test [11] has the same target. The test is described as follows: ^125I-hIL-13 displacement by unlabeled hIL-13 on SNB-19 glioma cells, LIGAND/Scatchard analysis.
The target is the same in test [12]. The test is described as follows: ^125I-hIL-13 displacement by unlabeled hIL-13 on U-251 MG glioma cells, LIGAND/Scatchard analysis.
For test [13] the target is unchanged. Briefly: ^125I-hIL-13 displacement by unlabeled hIL-13 on U-373 MG glioma cells, LIGAND/Scatchard analysis.

Where only a bound is given, the exact number is not on record here.

Chain of IL-13 receptor (IL-13R) on human tumor cells (human) (Q14627 whole entry): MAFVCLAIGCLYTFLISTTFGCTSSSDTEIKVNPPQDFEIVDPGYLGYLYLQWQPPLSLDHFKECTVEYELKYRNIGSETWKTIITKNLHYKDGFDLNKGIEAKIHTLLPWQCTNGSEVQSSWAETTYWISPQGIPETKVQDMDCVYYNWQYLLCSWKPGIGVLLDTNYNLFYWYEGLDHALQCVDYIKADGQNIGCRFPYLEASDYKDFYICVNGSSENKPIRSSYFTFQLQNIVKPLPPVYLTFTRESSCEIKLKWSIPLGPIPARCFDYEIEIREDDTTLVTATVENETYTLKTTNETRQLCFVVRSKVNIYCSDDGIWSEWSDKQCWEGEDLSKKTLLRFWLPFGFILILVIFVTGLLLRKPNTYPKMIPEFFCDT

In [1], “hIL-13-PE4E (from UniProt P35225 33-146; P11439 26-638)” gave an IC50, cytotoxicity on several glioma cell lines of under 0.1 ng/mL.
“recombinant human interleukin 13 (IL-13) (from UniProt P35225 33-146) (ligand)”: in test [2], the IC50 amounted to 20 nM. The substance further displayed a cpm specifically bound in test [3] of 182000 cpm. For the same substance, the % displacement of total binding in test [4] stood at 85%. For the same substance, the Kd in [5] was determined as 3.1 nM; in test [6], 0.128 nM; in [7], 0.394 nM; in test [8], 0.247 nM; in test [9], 1.6 nM; in test [10], 1 nM. The values for the Kd in test [11], in test [12] and in test [13] were 1.4 nM, 2.1 nM and 1.8 nM, respectively.

The values are drawn from US6518061.
